{
  "source": "ChEMBL document CHEMBL4261651",
  "about": "“Probing the ligand preferences of the three types of bacterial pantothenate kinase” (Bioorg Med Chem, 2018)",
  "proteins": {"B1": {"name": "Type III pantothenate kinase (Pseudomonas aeruginosa (strain ATCC 15692 / DSM 22644 / CIP 104116 /JCM 14847 / LMG 12228 / 1C / PRS 101 / PAO1)), Q9HWC1 (protein)", "chain": "MILELDCGNSLIKWRVIEGAARSVAGGLAESDDALVEQLTSQQALPVRACRLVSVRSEQETSQLVARLEQLFPVSALVASSGKQLAGVRNGYLDYQRLGLDRWLALVAAHHLAKKACLVIDLGTAVTSDLVAADGVHLGGYICPGMTLMRSQLRTHTRRIRYDDAEARRALASLQPGQATAEAVERGCLLMLRGFVREQYAMACELLGPDCEIFLTGGDAELVRDELAGARIMPDLVFVGLALACPIE"}, "B2": {"name": "Type II pantothenate kinase (Staphylococcus aureus (strain MSSA476)), Q6G7I0 (protein)", "chain": "MKVGIDAGGTLIKIVQEQDNQRTFKTELTKNIDQVVEWLNQQQIEKLCLTGGNAGVIAENINIPAQIFVEFDAASQGLGILLKEQGHDLADYIFANVGTGTSLHYFDGQSQRRVGGIGTGGGMIQGLGYLLSQITDYKQLTDMAQHGDRNTIDLKVRHIYKDTEPPIPGDLTAANFGHVLHHLDADFTPSNKLAAVIGVVGEVVTTMAITVAREFKTENIVYIGSSFHNNALLRKVVEDYTVLRGCKPYYVENGAFSGAIGALYLEK"}},
  "key": {"[1]": {"compound": "O=C(O)CCNC(=O)[C@H](O)CCO", "assay": "(§1) Substrate activity at Pseudomonas aeruginosa PanK3 expressed in Escherichia coli BL21(DE3) cells assessed as Kcat in presence of ATP/NADH by pyruvate kinase/lactate dehydrogenase enzyme coupled assay"}, "[2]": {"compound": "CC(C)(CO)[C@@H](O)C(=O)NCCCC(=O)O", "assay": "as §1"}, "[3]": {"compound": "CC(C)(CO)[C@@H](O)C(=O)NCCC(=O)O", "assay": "as §1"}, "[4]": {"compound": "O=C(O)CCNC(=O)[C@H](O)CCO", "assay": "(§2) Substrate activity at Pseudomonas aeruginosa PanK3 expressed in Escherichia coli BL21(DE3) cells assessed as Km in presence of ATP/NADH by pyruvate kinase/lactate dehydrogenase enzyme coupled assay"}, "[5]": {"compound": "CC(C)(CO)[C@@H](O)C(=O)NCCCC(=O)O", "assay": "as §2"}, "[6]": {"compound": "CC(C)(CO)[C@@H](O)C(=O)NCCC(=O)O", "assay": "as §2"}, "[7]": {"compound": "CCCCCn1cc(CNC(=O)[C@H](O)C(C)(C)CO)nn1", "assay": "(§3) Substrate activity at N-terminal His6-tagged Staphylococcus aureus PanK2 expressed in Escherichia coli BL21(DE3) cells assessed as Km in presence of ATP/NADH by pyruvate kinase/lactate dehydrogenase enzyme coupled assay"}, "[8]": {"compound": "CC(C)(CO)[C@@H](O)C(=O)NCc1cn(CCc2ccccc2)nn1", "assay": "as §3"}, "[9]": {"compound": "CC(C)(CO)[C@@H](O)C(=O)NCCCC(=O)O", "assay": "as §3"}, "[10]": {"compound": "CCCc1cn(CCCNC(=O)[C@H](O)C(C)(C)CO)nn1", "assay": "as §3"}, "[11]": {"compound": "CCCCn1cc(CCNC(=O)[C@H](O)C(C)(C)CO)nn1", "assay": "as §3"}, "[12]": {"compound": "CCCCCc1cn(CCNC(=O)[C@H](O)C(C)(C)CO)nn1", "assay": "as §3"}, "[13]": {"compound": "CC(C)(CO)[C@@H](O)C(=O)NCCC(=O)O", "assay": "as §3"}, "[14]": {"compound": "CCCCCNC(=O)CCNC(=O)[C@H](O)C(C)(C)CO", "assay": "as §3"}, "[15]": {"compound": "CCCCCn1cc(CCNC(=O)[C@H](O)C(C)(C)CO)nn1", "assay": "as §3"}, "[16]": {"compound": "COC(=O)CNC(=O)[C@H](O)C(C)(C)CO", "assay": "as §3"}, "[17]": {"compound": "CCCCCn1cc(CNC(=O)[C@H](O)C(C)(C)CO)nn1", "assay": "(§4) Substrate activity at N-terminal His6-tagged Staphylococcus aureus PanK2 expressed in Escherichia coli BL21(DE3) cells assessed as Kcat in presence of ATP/NADH by pyruvate kinase/lactate dehydrogenase enzyme coupled assay"}, "[18]": {"compound": "CC(C)(CO)[C@@H](O)C(=O)NCc1cn(CCc2ccccc2)nn1", "assay": "as §4"}, "[19]": {"compound": "CC(C)(CO)[C@@H](O)C(=O)NCCCC(=O)O", "assay": "as §4"}, "[20]": {"compound": "CCCc1cn(CCCNC(=O)[C@H](O)C(C)(C)CO)nn1", "assay": "as §4"}, "[21]": {"compound": "CCCCn1cc(CCNC(=O)[C@H](O)C(C)(C)CO)nn1", "assay": "as §4"}, "[22]": {"compound": "CCCCCc1cn(CCNC(=O)[C@H](O)C(C)(C)CO)nn1", "assay": "as §4"}, "[23]": {"compound": "CC(C)(CO)[C@@H](O)C(=O)NCCC(=O)O", "assay": "as §4"}, "[24]": {"compound": "CCCCCNC(=O)CCNC(=O)[C@H](O)C(C)(C)CO", "assay": "as §4"}, "[25]": {"compound": "CCCCCn1cc(CCNC(=O)[C@H](O)C(C)(C)CO)nn1", "assay": "as §4"}, "[26]": {"compound": "COC(=O)CNC(=O)[C@H](O)C(C)(C)CO", "assay": "as §4"}},
  "data": [
    {"protein": "B1", "values": [
      {"measurement": "kcat", "setting": "[1]", "value": 0.32, "unit": "s⁻¹"},
      {"measurement": "kcat", "setting": "[2]", "value": 0.98, "unit": "s⁻¹"},
      {"measurement": "kcat", "setting": "[3]", "value": 0.39, "unit": "s⁻¹"},
      {"measurement": "Km", "setting": "[4]", "value": 64, "unit": "µM"},
      {"measurement": "Km", "setting": "[5]", "value": 683, "unit": "µM"},
      {"measurement": "Km", "setting": "[6]", "value": 20, "unit": "µM"}
    ]},
    {"protein": "B2", "values": [
      {"measurement": "Km", "setting": "[7]", "value": 64, "unit": "µM"},
      {"measurement": "Km", "setting": "[8]", "value": 126, "unit": "µM"},
      {"measurement": "Km", "setting": "[9]", "value": 60, "unit": "µM"},
      {"measurement": "Km", "setting": "[10]", "value": 369, "unit": "µM"},
      {"measurement": "Km", "setting": "[11]", "value": 7.1, "unit": "µM"},
      {"measurement": "Km", "setting": "[12]", "value": 8.5, "unit": "µM"},
      {"measurement": "Km", "setting": "[13]", "value": 19, "unit": "µM"},
      {"measurement": "Km", "setting": "[14]", "value": "< 1.5", "unit": "µM"},
      {"measurement": "Km", "setting": "[15]", "value": 6.8, "unit": "µM"},
      {"measurement": "Km", "setting": "[16]", "value": 36, "unit": "µM"},
      {"measurement": "kcat", "setting": "[17]", "value": 3.4, "unit": "s⁻¹"},
      {"measurement": "kcat", "setting": "[18]", "value": 4.7, "unit": "s⁻¹"},
      {"measurement": "kcat", "setting": "[19]", "value": 3.4, "unit": "s⁻¹"},
      {"measurement": "kcat", "setting": "[20]", "value": 7.6, "unit": "s⁻¹"},
      {"measurement": "kcat", "setting": "[21]", "value": 0.82, "unit": "s⁻¹"},
      {"measurement": "kcat", "setting": "[22]", "value": 0.82, "unit": "s⁻¹"},
      {"measurement": "kcat", "setting": "[23]", "value": 2.16, "unit": "s⁻¹"},
      {"measurement": "kcat", "setting": "[24]", "value": 0.44, "unit": "s⁻¹"},
      {"measurement": "kcat", "setting": "[25]", "value": 0.73, "unit": "s⁻¹"},
      {"measurement": "kcat", "setting": "[26]", "value": 4, "unit": "s⁻¹"}
    ]}
  ]
}
